Here are results for two molecules from paper PMC11007441, “Deciphering the role of Enterococcus faecium cytidine deaminase in gemcitabine resistance of gallbladder cancer” (The Journal of Biological Chemistry, 2024).

In series [1] the test system is Nc1ccn([C@@H]2O[C@H](CO)[C@@H](O)C2(F)F)c(=O)n1. Briefly: purified protein. The settings on record: 0.2 uM enzyme; gemcitabine 0.5-8 mM; initial rates 0-1 min.
Series [2] concerns the molecule itself. Briefly: crystal structure; vapor diffusion, EfCDA at 15 mg/ml; apo-I (0.1 M Tris pH 8.5, 2.2 M (NH4)2SO4), apo-II (0.1 M sodium cacodylate pH 6.5, 20% PEG 4000) and complex with dFdU (co-crystallised with gemcitabine 1:10); tetramer from two molecules of the asymmetric unit by crystal symmetry.

By Km is commonly meant the substrate concentration at which the rate is half of its maximum. For “EfCDA (cytidine deaminase of Enterococcus faecium) (Enterococcus lactis)”, the Michaelis constant (Km) in series [1] was found to be 8.44 mM.

B1: cytidine deaminase of Enterococcus faecium (EfCDA) (enzyme, UniProt Q3XXR8 1-132, looked up)
chain: MAELKQEWINTAIEALDKAYVPYSHFPVGACLVTESGKIYQGINIENASFGLTNCAERTAFFKAVSEGEKTFTHLVVAGHTPDPISPCGACRQVMAEFCSPDMPVTLVGDNGVTKATTVRALLPYAFTEKDL
notes: cytidine deaminase of Enterococcus faecium, full-length protein with a single CDA catalytic domain, 132 amino acids; UniProt A0A133N269, WP_002291109.1; Homotetramer in the crystal: molecules A and B in the asymmetric unit, the tetramer completed by a symmetry operation; One zinc ion per chain (C55, C88, C91); also called EfCDD; T-CDA; source: E. coli BL21 (DE3), purified (HisTrap HP, HiTrap Q, …)
One may read the stoichiometry N as a count of units in the complex or per binding partner. As to B1, the “stoichiometry N” value in series [2] turned out to be 4.
